Data from patent US6500674.

Experiments:
[1] = molecular target: phosphorylated tau prepared by incubating recombinant non-phosphorylated tau with a rat brain extract (UniProt P10636); experiment: sandwich ELISA, antibody coated, CSF without added tau (background), detection with biotinylated AT120 and HT7
[2] = molecular target: recombinant non-phosphorylated tau (UniProt P10636); experiment: as above
[3] = molecular target: phosphorylated tau prepared by incubating recombinant non-phosphorylated tau with a rat brain extract (UniProt P10636); experiment: sandwich ELISA, antibody coated, CSF spiked with tau, detection with biotinylated AT120 and HT7
[4] = molecular target: recombinant non-phosphorylated tau (UniProt P10636); experiment: as above
[5] = molecular target: phosphorylated tau prepared by incubating recombinant non-phosphorylated tau with a rat brain extract (UniProt P10636); experiment: sandwich ELISA on CSF spiked with phosphorylated and non-phosphorylated tau, no amplification

ELISA signal at 0 pg/ml tau (blank) [1] | ELISA signal at 0 pg/ml tau (blank) [2] | ELISA signal at 0.2 pg/ml tau [3] | ELISA signal at 1 pg/ml tau [3] | ELISA signal at 5 pg/ml tau [3] | ELISA signal at 25 pg/ml tau [3] | ELISA signal at 100 pg/ml tau [3] | ELISA signal at 500 pg/ml tau [3] | ELISA signal at 2000 pg/ml tau [3] | ELISA signal at 0.2 pg/ml tau [4] | ELISA signal at 1 pg/ml tau [4] | ELISA signal at 5 pg/ml tau [4] | ELISA signal at 25 pg/ml tau [4] | ELISA signal at 100 pg/ml tau [4] | ELISA signal at 500 pg/ml tau [4] | ELISA signal at 2000 pg/ml tau [4] | detection limit in ELISA [5] | Substance
94 | 92 | 89 | 83 | 86 | 113 | 158 | 1040 | 2650 | 91 | 90 | 87 | 92 | 96 | 94 | 98 | 10 pg/mL | monoclonal antibody AT270 secreted by the hybridoma deposited at ECACC on Jul. 7, 1993 under No. 93070774
94 | 89 | 95 | 97 | 106 | 105 | 125 | 179 | 449 | 85 | 87 | 90 | 85 | 94 | 92 | 95 | 10 pg/mL | monoclonal antibody AT180 secreted by the hybridoma deposited at ECACC on Dec. 22, 1992 under No. 92122204
